Square brackets hold non-standard residues; d marks the D form.
Target: T1, Aβ1-42 monomers versus Aβ1-42 oligomers and fibrils (biotinylated, D-enantiomeric, immobilized) (Homo sapiens, UniProt P05067)
T1 construct: biotinylated, D-enantiomeric Aβ1-42 monomers
Test: Monoclonal phage ELISA
Format: binding
Details: individual phage clones; species immobilized at 320 nM; absorption at 450 nm normalized with 6E10 control; higher = more monomer-specific
Text: The specificity of the peptide results from the difference in % of the absorption values for the target molecule or the bait (for example A beta monomer) and the normalized absorption values for the competitors (for example A beta oligomers and fibrils) in the monoclonal phage ELISA.
The absorption values then constitute the affinity of individual phage clones for a particular immobilized A beta species. Here, the specificity is not dependent on the strength of the affinity, but instead only on the difference of the affinities between the species. […] The terms “competitors” and “target molecule” or “bait” are defined as specified below.
A method for normalizing the obtained values should therefore be performed. From all absorption values of the individual phage clone in the monoclonal phage ELISA, the values of the phage antibodies tested for cross-reaction can be used as background. This occurs in accordance with the previously immobilized species. The signal values of the phage antibody from the reaction trays with immobilized Aβ1-42 oligomers for this purpose can be removed from the signal values of the individual phage clone from the reaction trays with immobilized Aβ1-42 oligomers. A similar process is then carried out for Aβ1-42 monomers. In this way, a possible background signal of the phage antibody can initially be calculated from the signals of the individual phage clone. […] Only in this way is an equal interpretation of the results particularly in respect of the assessment of the specificity of the individual phage clone possible (see FIG. 2).
The affinity of individual phage clones with respect to the target molecule and the competitors was examined by means of ELISA. For this purpose, all three species were immobilized in biotinylated form on a polystyrene surface at streptavidin bound thereon. Since, during the panning rounds, oligomers and fibrils were added at the same time as competitors, these two species were immobilized in the monoclonal phage ELISA, likewise mixed. […] The streptavidin-coated microtiter plates were pre-washed as specified by the manufacturer. […] For immobilization, 100 μl were used per reaction tray and were incubated for 15 minutes at room temperature. After having washed the entire plate(s) twice with 150 μl 1×TBS per reaction tray, a blocking step with 150 μl 1×TBS/0.1% (v/v) Tween-20/1% (w/v) BSA was performed for an hour at room temperature. Three washing steps with 150 μl 1×TBS/0.1% (v/v) Tween-20 then followed per reaction tray. The amplified individual phage clones were mixed 1:1 with 1× TBS/1% (w/v) BSA. The antibody 6E10 was diluted 1:10,000 in 1×TBS/0.1% (v/v) Tween-20. […] After washing five times with 150 μl 1×TBS/0.1% (v/v) Tween-20 per reaction tray, 200 μl 1×TBS/0.1% (v/v) Tween-20 were placed in each reaction tray, and the plate(s) incubated for one hour at room temperature. The solutions were removed and replaced as follows: In all reaction trays that had been incubated previously with individual phage clone dilutions or the batch without phages, 100 μl of a phage antibody diluted 1:5,000 in 1×TBS/0.1% (v/v) Tween-20 were now added. The enzyme horseradish peroxidase (HRP) was coupled to this antibody and later served for the conversion of a substrate (TMB). […] At the same time, 100 μl of a second antibody diluted 1:1,000 in 1×TBS/0.1% (v/v) Tween-20 were now added to all reaction trays that had been previously incubated with the dilution of the 6E10 antibody, said second antibody being able to identify and bind to the 6E10 antibody originating from mice. This antibody is also HRP-coupled and thus allows a quantification of the binding of the first antibody to the immobilized target molecules or the plastics surface of the reaction tray. After one hour of incubation at room temperature, the plate(s) was/were washed 10 times with 150 μl 1×TBS/0.1% (v/v) Tween-20 per reaction tray. The signal was detected by adding the substrate 3,3′,5,5′-tetramethylbenzidine (TMB). […]

T1 sequence (P05067 672-713): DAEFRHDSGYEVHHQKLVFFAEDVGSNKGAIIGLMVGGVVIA

Sequence | Difference in signal strength between Aβ1-42 monomers (100%) and Aβ1-42 oligomers and fibrils
DLRFSSLWKLSH (H-[dD][dL][dR][dF][dS][dS][dL][dW][dK][dL][dS][dH]-NH2; SMILES CC(C)C[C@@H](NC(=O)[C@H](N)CC(=O)O)C(=O)N[C@H](CCCNC(=N)N)C(=O)N[C@H](Cc1ccccc1)C(=O)N[C@H](CO)C(=O)N[C@H](CO)C(=O)N[C@H](CC(C)C)C(=O)N[C@H](Cc1c[nH]c2ccccc12)C(=O)N[C@H](CCCCN)C(=O)N[C@H](CC(C)C)C(=O)N[C@H](CO)C(=O)N[C@H](Cc1c[nH]cn1)C(N)=O) [Mosd19] | 50.299%
HLSWYWEKYLTS (H-[dH][dL][dS][dW][dY][dW][dE][dK][dY][dL][dT][dS]-NH2; SMILES CC(C)C[C@@H](NC(=O)[C@H](N)Cc1c[nH]cn1)C(=O)N[C@H](CO)C(=O)N[C@H](Cc1c[nH]c2ccccc12)C(=O)N[C@H](Cc1ccc(O)cc1)C(=O)N[C@H](Cc1c[nH]c2ccccc12)C(=O)N[C@H](CCC(=O)O)C(=O)N[C@H](CCCCN)C(=O)N[C@H](Cc1ccc(O)cc1)C(=O)N[C@H](CC(C)C)C(=O)N[C@@H](C(=O)N[C@H](CO)C(N)=O)[C@H](C)O) [Mosd9] | 68.016%
HFWSWTSLSMTR (H-[dH][dF][dW][dS][dW][dT][dS][dL][dS][dM][dT][dR]-NH2; SMILES CSCC[C@@H](NC(=O)[C@@H](CO)NC(=O)[C@@H](CC(C)C)NC(=O)[C@@H](CO)NC(=O)[C@H](NC(=O)[C@@H](Cc1c[nH]c2ccccc12)NC(=O)[C@@H](CO)NC(=O)[C@@H](Cc1c[nH]c2ccccc12)NC(=O)[C@@H](Cc1ccccc1)NC(=O)[C@H](N)Cc1c[nH]cn1)[C@H](C)O)C(=O)N[C@@H](C(=O)N[C@H](CCCNC(=N)N)C(N)=O)[C@H](C)O) [Mosd8] | 68.616%
LSMNITTVHRWH (H-[dL][dS][dM][dN][dI][dT][dT][dV][dH][dR][dW][dH]-NH2; SMILES CC[C@@H](C)[C@@H](NC(=O)[C@@H](CC(N)=O)NC(=O)[C@@H](CCSC)NC(=O)[C@@H](CO)NC(=O)[C@H](N)CC(C)C)C(=O)N[C@@H](C(=O)N[C@@H](C(=O)N[C@@H](C(=O)N[C@H](Cc1c[nH]cn1)C(=O)N[C@H](CCCNC(=N)N)C(=O)N[C@H](Cc1c[nH]c2ccccc12)C(=O)N[C@H](Cc1c[nH]cn1)C(N)=O)C(C)C)[C@H](C)O)[C@H](C)O) [Mosd11] | 57.671%
GQWDFRQWWQPC (H-G[dQ][dW][dD][dF][dR][dQ][dW][dW][dQ][dP][dC]-NH2; SMILES N=C(N)NCCC[C@@H](NC(=O)[C@@H](Cc1ccccc1)NC(=O)[C@@H](CC(=O)O)NC(=O)[C@@H](Cc1c[nH]c2ccccc12)NC(=O)[C@@H](CCC(N)=O)NC(=O)CN)C(=O)N[C@H](CCC(N)=O)C(=O)N[C@H](Cc1c[nH]c2ccccc12)C(=O)N[C@H](Cc1c[nH]c2ccccc12)C(=O)N[C@H](CCC(N)=O)C(=O)N1CCC[C@@H]1C(=O)N[C@H](CS)C(N)=O) [Mosd15] | 59.985%
HTWTHWFSWNVP (H-[dH][dT][dW][dT][dH][dW][dF][dS][dW][dN][dV][dP]-NH2; SMILES CC(C)[C@@H](NC(=O)[C@@H](CC(N)=O)NC(=O)[C@@H](Cc1c[nH]c2ccccc12)NC(=O)[C@@H](CO)NC(=O)[C@@H](Cc1ccccc1)NC(=O)[C@@H](Cc1c[nH]c2ccccc12)NC(=O)[C@@H](Cc1c[nH]cn1)NC(=O)[C@H](NC(=O)[C@@H](Cc1c[nH]c2ccccc12)NC(=O)[C@H](NC(=O)[C@H](N)Cc1c[nH]cn1)[C@H](C)O)[C@H](C)O)C(=O)N1CCC[C@@H]1C(N)=O) [Mosd10] | 71.902%
VHWDFRQWWQPS (H-[dV][dH][dW][dD][dF][dR][dQ][dW][dW][dQ][dP][dS]-NH2; SMILES CC(C)[C@@H](N)C(=O)N[C@H](Cc1c[nH]cn1)C(=O)N[C@H](Cc1c[nH]c2ccccc12)C(=O)N[C@H](CC(=O)O)C(=O)N[C@H](Cc1ccccc1)C(=O)N[C@H](CCCNC(=N)N)C(=O)N[C@H](CCC(N)=O)C(=O)N[C@H](Cc1c[nH]c2ccccc12)C(=O)N[C@H](Cc1c[nH]c2ccccc12)C(=O)N[C@H](CCC(N)=O)C(=O)N1CCC[C@@H]1C(=O)N[C@H](CO)C(N)=O) [Mosd20] | 45.718%
YSFHFEMNMGNY (H-[dY][dS][dF][dH][dF][dE][dM][dN][dM]G[dN][dY]-NH2; SMILES CSCC[C@@H](NC(=O)[C@@H](CC(N)=O)NC(=O)[C@@H](CCSC)NC(=O)[C@@H](CCC(=O)O)NC(=O)[C@@H](Cc1ccccc1)NC(=O)[C@@H](Cc1c[nH]cn1)NC(=O)[C@@H](Cc1ccccc1)NC(=O)[C@@H](CO)NC(=O)[C@H](N)Cc1ccc(O)cc1)C(=O)NCC(=O)N[C@H](CC(N)=O)C(=O)N[C@H](Cc1ccc(O)cc1)C(N)=O) [Mosd13] | 57.246%
FSHSHHTWFTWN (H-[dF][dS][dH][dS][dH][dH][dT][dW][dF][dT][dW][dN]-NH2; SMILES C[C@H](O)[C@@H](NC(=O)[C@@H](Cc1ccccc1)NC(=O)[C@@H](Cc1c[nH]c2ccccc12)NC(=O)[C@H](NC(=O)[C@@H](Cc1c[nH]cn1)NC(=O)[C@@H](Cc1c[nH]cn1)NC(=O)[C@@H](CO)NC(=O)[C@@H](Cc1c[nH]cn1)NC(=O)[C@@H](CO)NC(=O)[C@H](N)Cc1ccccc1)[C@H](C)O)C(=O)N[C@H](Cc1c[nH]c2ccccc12)C(=O)N[C@H](CC(N)=O)C(N)=O) [Mosd7] | 57.960%
EHWDFGQWWQQS (H-[dE][dH][dW][dD][dF]G[dQ][dW][dW][dQ][dQ][dS]-NH2; SMILES NC(=O)CC[C@@H](NC(=O)CNC(=O)[C@@H](Cc1ccccc1)NC(=O)[C@@H](CC(=O)O)NC(=O)[C@@H](Cc1c[nH]c2ccccc12)NC(=O)[C@@H](Cc1c[nH]cn1)NC(=O)[C@H](N)CCC(=O)O)C(=O)N[C@H](Cc1c[nH]c2ccccc12)C(=O)N[C@H](Cc1c[nH]c2ccccc12)C(=O)N[C@H](CCC(N)=O)C(=O)N[C@H](CCC(N)=O)C(=O)N[C@H](CO)C(N)=O) [Mosd14] | 56.526%
FSWSMVMPWPTA (H-[dF][dS][dW][dS][dM][dV][dM][dP][dW][dP][dT][dA]-NH2; SMILES CSCC[C@@H](NC(=O)[C@@H](CO)NC(=O)[C@@H](Cc1c[nH]c2ccccc12)NC(=O)[C@@H](CO)NC(=O)[C@H](N)Cc1ccccc1)C(=O)N[C@@H](C(=O)N[C@H](CCSC)C(=O)N1CCC[C@@H]1C(=O)N[C@H](Cc1c[nH]c2ccccc12)C(=O)N1CCC[C@@H]1C(=O)N[C@@H](C(=O)N[C@H](C)C(N)=O)[C@H](C)O)C(C)C) [Mosd21] | 46.030%
VHWDFRQWWQQS (H-[dV][dH][dW][dD][dF][dR][dQ][dW][dW][dQ][dQ][dS]-NH2; SMILES CC(C)[C@@H](N)C(=O)N[C@H](Cc1c[nH]cn1)C(=O)N[C@H](Cc1c[nH]c2ccccc12)C(=O)N[C@H](CC(=O)O)C(=O)N[C@H](Cc1ccccc1)C(=O)N[C@H](CCCNC(=N)N)C(=O)N[C@H](CCC(N)=O)C(=O)N[C@H](Cc1c[nH]c2ccccc12)C(=O)N[C@H](Cc1c[nH]c2ccccc12)C(=O)N[C@H](CCC(N)=O)C(=O)N[C@H](CCC(N)=O)C(=O)N[C@H](CO)C(N)=O) [Mosd12] | 59.012%
